Experimental data published in the DeepSol protein solubility set.

experiment: soluble on expression in E. coli; label from the status in PepcDB or PDB records

Soluble on expression in E. coli, not soluble:
MAHHHHHHMSGGDIWVRRAPIGHPREMTVSTSVNNGPGPQGRHLFAELPINAGGGEVVLGECGTSGPSRSCNAMFSFKPPRHEPLWQPTRLTSPYCVLSANGVQDDFYTSCLSWGKGNIALALRDEVLLFQPSRPLVRLAVLNVQERPRSIISRVTSVAVSRFSDSSCFMGELDGSVGVYASRGDGRLSQTSVFSKPPPPLENTPLAGEAAMTATASVRCLATTDVHPWLVAAGTAAQGLFIFDSRCEKPSAQMVECDTFIALDSKRARKPLSPEDCLSLLSSAEGICGVSWNASGSLVATGGSGGVVNIWSLSQTRAPVQQIKLPNAHTTVKAIAFNPTLPYELAVGGGTNDGMLRLYDVSSSVSYLAWCVSTGCQVTQALYSPDGAFIISAQGLRHDKFTADGRAHSTALRMPNSNGAGVDVHRDSMDALERLTEEFERGMTRNGRTQEELQEPAPSHSGTAMNWAGDTPRTDDSPAFSLVMWRRGTQHRHSVPLGFSNTKPRDRPRSQYIQETERTPLPLFSMYMMTGHRSRPLHLASPFSSTADRGSVASFAGGVDNTIRFWKCFCPRSEAVNWEHRTRASMRAAVTEEDVEGMMAMPLR
MAHHHHHHMSGILTNLNIESGYFNEDIKEESNESNFMYANISMLIRAYKKDRNKLILLNKKLNLIKIVGLVLNIEEKKEFIIYTIDDTTGCIKAKLLLTYSLNSYNEKKDNIKINDLIQIFGICNTVSLNEDLTISISSINKLDSFNYLCHHHLLVFHDYLKYQEEERRNPIEDKSRNDEDDLESTQNNENAYFNTFFY
MAHHHHHHMSGVNAWGRMHTPAKQSQFTLDMFEEWKAKQNEDIAQRGADRDPAVEEEHNRYMLRQNLNAYVCYKELDRYTTCLEDKRLIRRRDDEDGARGGGTGVSLASSFEINTRNKVNEKLCRATHNTYVSCMSSQKNQEVVLQSASLEPHCTERRAKLFRCLRENQVSEAQTNTPQCTDTYRSLLRCGLNHLWNHYWREITKFSDTDEFHLYELSRDDNKKQAYLRALTTSEAQRQSHLREARDTMLGYYLDPKAAQKGDS
MAHHHHHHMSLCHTASRWRSVQCTGDIPPGRIGHTLCANGTETKIFLYGGVNDRNESISNYLDDLYVFDVNKKHWSKIEMTGQVQCSRAFHSAVYYEGKIYIFGGCNGRGRFNKLFSTSEEGLCAQIEASGQPPSTRYCHSAVLFERCMYIFAGKCGGRNSNRRLSDLYLFDFQTNTWMECPQHGDPPTPRSAHAAFTCGRNMIMFGGRSAQGECCEDMYMYNYDTCMWRPIESPNSGPLFGRARNSVVVHHGKVVVFGGWNGKKKLNDLFTYHVDSNTFEVMHEPDENCPSRRECHVAVVCKNTMVVFGGRFRGEFMSDTAELDLGPKTLKQNCRDWILRSSFKELHSNRGERLPLRLQQFIESWRQLICRVEKIEPRTPLQDSAPNEALSSDSNSQHG
MAHHHHHHMSQQQWTPDQRRQQIAEMLRNKGVICRDFLFTGRCSRSPTCPYMHVANGETRPVPWSVCTFFTQGKCLRDGCSFFHGTQAQLEELHASGAPVYRPQDYMKIAVPPAEYLNADGSIATHLSIAAVPMTPALHVVHGPTVSHENAVNSFQPVLVMQPNSQAIAPTMFASQGRTAHSTPSHFAFYANAPITSQMPTHSAATVLQPTLHTVQPTTFYQAANALLAQPQQHFAPVPQLNTPQQHQLTQQALGSRVYFHIQPH
MAHHHHHHMSSATPPLPADSVTASAALRFSVDFDPSRADSKPSVLLLTQNVGGIEAALGTDAGLGETSPECPHSPLPENGGDTSAAFASVPKDFRGPSYIHVPDDIDSELGVSPVVRQQVAEFLADLRQWLHRLSYMSAAVRAAEASATASSAAPASVAGGAPSPPPSPTPCGAAANTEAYMRSYTPSVRPPLIDMVVLHFQEIGGKYKNKHFNEYFKEQIRTSLLPEAGWTSGLLMDERESGDTLSSSSYQRHRATSTVQALRRTSFEGSSTSNNNGNANGHVGDAHRLSDANSNDTDLTAELDADADAYFTAIGSIVFLSPRFMGIASCLSVPHRTYIPIVDDPLTYAGEAGRLFHSGKFAEAGRSRKGFLLLSLRLGTVQFNVCNVHLFNDDDNRVALKSSPSLYTGRRTRAITEAIAECSAVVDLSEPLFIFGDYNVRMDGKSFTEWVEEKMQMTVRAERKRLRCPEQFWELFTNPATQQELRTRFDIEPQHLMDEVALLSSVELAEMPIQFAPTYSRVAYRTRTGATTTSAGADAAALRDVAATPDAQQQIPTLKDLAGRADAIRAEEQEQTEAIRARPSVSTLLAPLASPLASVPLTHVAASPYRDNFCHDRLPAWCDRVMFNVAGLEWISGDRSRTAPPQPQAASSVSGSAASGAGGLKGRQRSGQGCWYAYAAIDFIHMDHDGVFMLF
MAHHHHHHMSSDTMPFKLVEPFVLFHTIFSDDFQHPQVAMITQACGSHSTASNQSTSHFLQIFFDFPLHVEPNEAPTDLIFLCKWGTSHSSHTPPHGNDVNVTRTNFLFRQCSQKKSATDY
MAHHHHHHMSTNINEEKCLEGDDIKYEKPDTHKNFWKSFGLNNEAGKLLYHLYGESNKIKPNILSSKHDGDKNKNDKKKEDAKLNTTYRKPQIHYPSLKKKAVKENPIDTIKHRKPLSKILEETQNYDCIKDIPISIGMNRETEKNKLHNIFVEEKCLMVPPSCAPMILTQEEKKEIIEKAQQRYIYINEENKSREEKHIQALRNYKLELIQELNEKRKLLQDIINEDKNIQGNISINQSDKRVSNKGNSYNIIQIKNDIEQCQKSIKKIEDNLNTYE
MAHHHHHHMSVGKPITRDSSKQLWRHIKSSGEEELTYTHNPYDDSPNRRKEREKSLNVCRHYAEGRCNRGSTCRFHHETRHNIIVTPHVTPKFSSIAPLKGLPTSPLGAYLSSPPNRSCNGCLLSPTHHNNSMSYNSSTNSSMKILSESSSTIPHLQLPESLSTHCRSSTYVASGMNGEQPPHDVLILSSSLGSLNVGDHVSRNNGGFLLTAQQR
MAHHHHHHMSYSFVVVPPPVPAATPAFEAHVSTLLRHVPHPTFITCTSYSPYFTSAAAESLAAAADTADESANAMEASVTQQALSYLHQCVAADVGLVLTVTATRATSHAESVQSTQGGDQDSQQHPKQHTSSSSASMVPTTTTLTGASRGGTAAILADFIGRTSAAPATKLGTANSQEATRHRSRGLMVLRGDDGGYTRQCMIAAQKGGASASPPSLSPNPYVDFADGVDLLRFIHSTLRGRDGEAMCEITGDEPAGAAVCLCIGGYPQGHVLDRQWGADAATAAAVPSAQSPLPCQTLASLRFLDEVDTVFADTEAQLRRAQGTHSAPRPPSLESCVEAAEALFARLGAVRRLWTTPSYYPPSVRAACTRRTVANKVFLRPPGTRQCVADSAWDGCGSAGAHVVVTQVITSATEFFDYVEDIRNALRSSVPPARGVPCDRGRDGAAATEARGASVPCLQLRAASALPSSSPSLVIVPGLMAPLRAEQFLRSALQLKVIPSVPFQRALREYEGALHSAVETLRSAVSSNAIDVYAEAKERAEACFQEWMVAITVDIVRDLRARGYTHVNFSAFQYGCGDAVGCVVAALAAEGREEVVEEP
MAHHHHHHMTDVDQWKCASFKQEEDHSEATDALLERINATAIPVLLRSTNSSLDDLVNELLALEKMARLGGDALSAKRLVVEILRIYRVHGDHEKMLDTLETLMRKRGQTKQSQGAMIAECGVLLTEGNLSREQRRIVLERVVHLTDSRIHVELEHVRFAIDLAKLMEDDGEKRAACDLLSGLHVETVTNMPRVEKLDALNRLIRLCLELEDYELARLVSRRINHRALSRPGALQAKLKYFELMREYFAQRRSYFHVARCWYETFLSETDETACVSALSSMAVHYLIAEHSSPKELEDHAECAAFSPATKFADRTAAIQGITTTLRKRLEENPQLQYLLEKFTSIELIRERVADDVEALCINHPQLAGFPERQALLRSRCSEHDLLVISRFYRRLRLVRLAELVGLTPQHTEEFLMMMVASRTLYAKIDRVDGLVVFEANKNANDVVTAWDEAVGRSVALLDKVSHLIVKERMLHNITLAQLQQSGATAS
MAHHHHHHMTGSTHNGGSRLIQYEDSSNKEFIRKYLVETRNEFIEKQMRALYECREIYKDDIDEVINILTYALENNDSVLLRHEVAYVIGQISNEKCNDILIKLLNDTEENLMVRHEAAEGLAAIGSDSNIEVIKKFLNDEKVEVRETCELALSSLLEKNKYAVCSCSNKDSIKEAIKKKRNDEFVSKKFNTIDPVVFTSSGNAKSVDALIEDLNNEAVPLKLRYEALFKLRDMETDVSINALGEVLIKDKKSAIFRHEVAFVLGQALHLNSLKYLISSLQNVGEHEMVRHEVALALGSLGSLNINSQEYKNVQSEIISTLKTFSKDACRVVAESCLVGLDYIAENLNMAIEVN
MAHHHHHHMTQSTIPLQSNIKISDRLEENSIDFCRFVGPFNRADEYAFTAPPWCQREGSENVPGSSLSTSVSAVFVLVSSPPNCGLVARFFCTKLLHYLLWCYKDAAFFLAGPSPRDFNVYRHEDDAAAWRKCMETCLAKSLEHVESARKRGTLTEPVVIVLADCESQAAYDTVHKMLGSMENLFVRHIWFGDSWRESNPVDCSYINVCLRQPAYRLTKCRGSSTCAKITSYLNSCLPTLHHIHLHEPLSGSPEETLRSGCPLFFTRHGQSEYNLEDRLGGDPDITPLGVDDALTLAEFFRDQVVRNPRLFATRDSIWDETEGFEVWCSQLKRTRHTAQPSADVLTNGNLKAFKMLNEIHAGVCEDMTANEVKEQYPSIQFFRHTDKAGFRYPNGESYHDLKRRLVPILYDLNATRKGILVVAHQAVLRAILSFFGGPPVEEAVHKPCAHRAVWCCTYNRLGEPRLSTITLRPRLQSSTEASTSVG

Soluble on expression in E. coli, soluble:
MAHHHHHHMSLHKEICNYIVKFSSKPVQRLGYEPPKKKRSILRELYHKLIFPYYFKFIRAPYERWQFCATTKFLREHGLMYDDMYSDKDPVIERAISLLPKDIQTRRYRRMLRGTHINYLRLFLHPSEQNYDPYIPYLAPYIEEAKFQLQEEEELLGYHPYDRRLYSGGTTGFGDLEPGLHFLVSIPNLYGAAIPHSKKK
MAHHHHHHMSVRERAVVLVDGPAVVHRWYHRWSYTSKHTPVDVKRFTITNARHIIATAHSFDPSHLAQHLLSPQVEYAHTPKHNKIIVCFDQGDGGRRELYPAYKENRAEREHAAELSVIKKVAIKVFTGEPKNTLIVLPDLDAKLKDVDAEADDIIATLALHNQQLKIPTVVMSHDYDLYQLIDEANKCYHYDIRTKHLVSEKGVIERVGVHPKLVRDYKSLAGDSSDNIPGVKGIGKTRALQLLKKYGDLEGVLTKGKKKQGGHLGDLLRAGAADAELSRKLVELRSCPKVLKACEAFMKL
MAHHHHHHMTSPMLMAAENFCFTPQSHFMVKTPKSERAHQCSKLYNEAFVVSNRTGLRSILRANESGRSYLNGGGIIARVWALEEALKAFFNLRKKKFVWGCDQSMWALLLIWSITRPENIKPALLVRRGLISLDYETRYFLYPSKTMVMSGMILHFAGPVHVWKRTLPQYLSEINWYRALSNSSPKREASIRLLKNSTVEMYTFWGSRKDAKLSTVCPISNISDPSWLSGQLKK
MAHHHHHHMTSVIQRLRRIEVEGLENLRNLGGYHTNNSTKTTRWGVVYRSDQLFRVPADVAQMVLVDQLHIRHVYDLRANTEVSAKRYSLPHMQYTSLPIEMSNANRFLKEGENLKQVATAHRFMQEIYREFVRSYAPTMGLIIKGIIDSKASCDNAFLIHCTAGKDRTGWCCYVLLTLLDVMEEEKRSDYLLTNTFVGIPADAWDYDGAEGMGEEAMTALWTVFDEYLDAALDELNKMGGIYKYAKSHMGLTDEDIDELRELMLE
MAHHHHHHMTVEDQVDHLLAPQRDGQENIQQRQEFNGFVHWGLLHGAHMVLEENQDTKRAHEFVNRYMRDIDLFEKWLEHPKVRAHIQKKFGIDMSAKFDKLMALTMAMYTRSKIQVYEDDPAGALKSLTASMSFITEGADLKKERHRKALGAVLVARGMIHCKLKSFHRADDDLTRALAFVKANRSATLYQLRAEAREALGHIDEARADEERAAQIWEEAEVITPGMDGAPRKFVT
